In a protein production outcome set (Wang et al. 2014) one finds protein production data, which are given here for 15 sequences.

The nature of the data set: label from the status in PepcDB records.
Take “MAATASPQPLATEDADAENSSFYYYDYLDEVAFMLCRKDAVVSFGKVFLPVFYSLIFVLGLSGNLLLLMVLLRYVPRRRMVEIYLLNLAISNLLFLVTLPFWGISVAWHWVFGSFLCKMVSTLYTINFYSGIFFISCMSLDKYLEIVHAQPYHRLRTRAKNLLLATIVWAVSLAVSIPDMVFVQTHENPKGVWNYHADFGGHGTIWKLFLRFQQNLLGFLLPLLGMIFFYSRIGCVLVRLRPAGQGRALKIAAALVVAFFVLWFPYNLTLFLHTLLDLQVFGNCEVSQHLDYALQVTESIAFLHCCFSPILYAFSSHRFRQYLKAFLAAVLGWHLAPGTAQASLSSCSESSILTALEEMTGMNDLGERQSENYPNKEDVGNKSA”: the protein production result is listed as “failed”.
Regarding “MASLEVSRSPRRSRRELEVRSPRQNKYSVLLPTYNERENLPLIVWLLVKSFSESGINYEIIIIDDGSPDGTRDVAEQLEKIYGSDRILLRPREKKLGLGTAYIHGMKHATGNYIIIMDADLSHHPKFIPEFIRKQKEGNFDIVSGTRYKGNGGVYGWDLKRKIISRGANFLTQILLRPGASDLTGSFRLYRKEVLEKLIEKCVSKGYVFQMEMIVRARQLNYTIGEVPISFVDRVYGESKLGGNEIVSFLKGLLTLFATT”, the protein production result is on record as “failed”.
For “IEEVYEATLDAIQGALNCDRASILLFDEAGTMRFVAARGLSEHYQRAVDGHSPWITGANEPEPIFVENVDDAEFSRELKESIVGEGIAALGFFPLVTEGRLIGKFMTYYDRPHRFADSEIGMALTIARQLGFSIQRMRAEYARRQAEE”, the protein production result is on record as “not failed”.
For the sequence “MAKIFVVGGSGRVASELIKNLINDGNQVFASSRHPEKIIKLDNVVPVKLDLHSDVSAWSEVFKGMDVIYFVAGSRGKDLLQTDAMGAVKTMQAAENVGVKRYIMLSSLYALQPEKWSQYESLAALTDYNIAKFFADNYLVNDTKLDYTVVQPASLTEETGTGRVSFNEIISNTNPIPDVAKVLAEVIKHNNTIGKVIMMCSGDNPIETALKDI”, the protein production entry is on record as “failed”.
Under “STTTTTKKPHVLVIPFPQSGHMVPHLDLTHQILLRGATVTVLVTPKNSSYLDALRSLHSPEHFKTLILPFPSHPCIPSGVESLQQLPLEAIVHMFDALSRLHDPLVDFLSRQPPSDLPDAILGSSFLSPWINKVADAFSIKSISFLPINAHSISVMWAQEDRSFFNDLETATTESYGLVINSFYDLEPEFVETVKTRFLNHHRIWTVGPLLPFKAGVDRGGQSSIPPAKVSAWLDSCPEDNSVVYVGFGSQIRLTAEQTAALAAALEKSSVRFIWAVRDAAKKVNSSDNSVEEDVIPAGFEERVKEKGLVIRGWAPQTMILEHRAVGSYLTHLGWGSVLEGMVGGVMLLAWPMQADHFFNTTLIVDKLRAAVRVGENRDSVPDSDKLARILAESAREDLPERVTLMKLREKAMEAIKEGGSSYKNLDELVAEMCL” stands “failed”; under “MNSKIMYHIFPDRFHRYGEDRPGLIKWGEKPSRDSFFGGNLEGIRQKIQYIKDLRVDHIYLNPLFKSKSNHRYDVDDYYSIDELLGTDQDLKNLVSDAHASGIKIVLDMVFNHTSTDFPAFRDVIEKGRNSPYYRWYIFHRDEFTVFRGRGKRGSYPSYETFMGYGGMPKLDHRNPEVRRYCINVLKYYVQKFDVDGFRYDVAHSIYSKFFEEVFSEIGTGILHIGEAWCLPTYLVNGSAWQSYTNYFLGGSIIDFLKGSITLGEFYDRVQRMLIVNGIEKQQAMMNVLDSHDTPRILRILNGDRKKVKLAYSILYLFDGIATIYYGDEVGLDGGKDPDDRRCFPWDSMDEDMHSFFMNLGDLREKYSLGSALEHHHHHH”, “failed”; under “MVFVWFIVAAIVTILTAIKLSNYADTIGEKSTLGGMLVGTIFLAGATSLPEITTTVSAIVLNNPDLAVGNVLGSNMFNLLILATLDLYFRRAQLFRGADTSHFFTASIGLLLAMVTLIAITLRLDVTLLGIGIDMLVLIVVYAFGMKLLSAVRNDPVPESQTIDQEDNRPVKKDVSLRHAMIGFAISAIVIMGAGTLLTVTGDEIAVVTGLGSSFVGSFLIAATTSLPEGVSVFVALRLKNINLALGSVLGSNLFNFLILGVSDILYRPGSIIAAISPVHQLTAAAVGILCLMTLYALLRPAEQSKRMYLMPSLVLIVFYFFSSYLIFVQ”, “failed”.
Turning to “MTSKSEWSNARRIVIILADVLLYNLSIILGFMVKFGREIPSFNFVAYEKSAIYISIFFIFLNLLLGAYIFYNRKISDIIFVTVIGQILMTLTIMIVTFAGRWFTFPRSVLGYSFIIGIIVLSLWRILVYYLYLKVSNERKVVLLGKENQVMRSIQNFMSDKNNKHKVTSVVVSNYYENLKKIIDEIDIVYISSNVDENEKVKLYQLIVKHKKKIFLDTSFENLIMLKPNMMNFEDESIIEVSNFEIQPEENFIKRLFDILVSVCLFVITSPLMLIAAILVKATSPGPVIYKQTRITLDQREFSILKFRTMSATAEAKSGPVLSTSNDSRVTTVGKYLRALRIDELPQLINVIRGDMSIVGPRPERPFFVDQFNQENPNYYLRHNVRAGITGYAQVYGKYASDYNSKLNFDLLYIKNYSLLLDMKILLQTIKILFDKVSSRGLDESEEREELTMDYCKENAIRIYR”, the protein production entry is reported as “failed”.
Under “VTTVGFDVAARLGTLLTAMVTPFSGDGSLDTATAARLANHLVDQGCDGLVVSGTTGESPTTTDGEKIELLRAVLEAVGDRARVIAGAGTYDTAHSIRLAKACAAEGAHGLLVVTPYYSKPPQRGLQAHFTAVADATELPMLLYDIPGRSAVPIEPDTIRALASHPNIVGVKDAKADLHSGAQIMADTGLAYYSGDDALNLPWLAMGATGFISVIAHLAAGQLRELLSAFGSGDIATARKINIAVAPLCNAMSRLGGVTLSKAGLRLQGIDVGDPRLPQVAATPEQIDALAADMRAASVLR” stands “not failed”; under “RPKTGFQMWLEENRSNILSDNPDFSDEADIIKEGMIRFRVLSTEERKVWANKAKGETASEGTEAKKRK”, “not failed”.
For “MITNNVSLLIMGIDENQERQKEYNGAFHTDALLLATFNKDDKTVKLTSIPRDTYTYVPVEKKKDKITHAYGSGFVKNGKDGGPQTSVEAVEKLLQVPVDYFVKFNFNSFTKIVDGLDGIEVDVPVEFTEQNSKDEPDAIHLKKGLQKLTGEEALALARTRHIDSDAMRGQRQQLVIEAILSKLKSVGSITKLEKIVEAVDGDFKTNLAMDDILSFYKYGLNCSIEKIQLAGDDLYLPNGPNGQRVYYYNPNKKDLQSLSNTLRTHLGLSEKQIEENLEHHHHHH”, the protein production result is given as “not failed”.
To “MIVVKVGGAEGINYEAVAKDAASLWKEGVKLLLVHGGSAETNKVAEALGHPPRFLTHPGGQVSRLTDRKTLEIFEMVYCGLVNKRLVELLQKEGANAIGLSGLDGRLFVGRRKTAVKYVENGKVKVHRGDYTGTVEEVNKALLDLLLQAGYLPVLTPPALSYENEAINTDGDQIAALLATLYGAEALVYLSNVPGLLARYPDEASLVREIPVERIEDPEYLALAQGRMKRKVMGAVEAVKGGVKRVVFADGRVENPIRRALSGEGTVVR” belongs “not failed”; to “MSAWFELKQYGSGACRFLLKTKEAQTMLQSDRYPCRDSAEAALGLFRAHCASPERYVKKISSGGKPFFKLKSGKEVILVSHLYDSEATLESAISAIASAGTTERVEHIQL”, “failed”; to “MTENELLTRCGGKCELCGSDVELAIYDLPASDGHENEIMICENCSSQIAAPDTMDMNHWRCLNDSMWSQVPAVQVMSYRMLKRLSGESWAQDLLDMLYLEDDLRAWGDAEAAAASDDTPPTLDSNGAVLNAGDTVVIIKDLNVKGTSFVAKRGTAVRNIALTNNPEHIEGRVNGTRIVILTCFVKKSLEHHHHHH”, “not failed”.
Under “MIRNIVFDLGGVLIHLNREESIRRFKAIGVADIEEMLDPYLQKGLFLDLESGRKSEEEFRTELSRYIGKELTYQQVYDALLGFLEEISAEKFDYIDSLRPDYRLFLLSNTNPYVLDLAMSPRFLPSGRTLDSFFDKVYASCQMGKYKPNEDIFLEMIADSGMKPEETLFIDDGPANVATAERLGFHTYCPDNGENWIPAITRLLREQK” stands “not failed”.
